Experimental data as given in patent publication CN115246884A (SHANGHAI JUNSHI BIOSCIENCES CO LTD; JUNMENG BIOSCIENCES CO …, dated 2022).
Each block holds one molecule with its values, some of them ahead of it.

Legend:
人PD-L1重组蛋白 (human) = 人PD-L1重组蛋白 (human) (UniProt Q9NZQ7); test: Biacore SPR, AHC capture of antibody, PD-L1 as analyte 0.78125-12.5 nM
[1] = target: MAB-BA-231细胞表面人PD-L1 (human) (UniProt Q9NZQ7); test: FACS on cells carrying human PD-L1
MAB-BA-231细胞表面人PD-L1 = target: T1, MAB-BA-231细胞表面人PD-L1 (human, UniProt Q9NZQ7 19-290); test: FACS on MAB-BA-231 cells carrying human PD-L1
T1 construct: whole, on cells; also called 人PD-L1高表达细胞株(MBA-MA-231)
T1 sequence (Q9NZQ7 19-290): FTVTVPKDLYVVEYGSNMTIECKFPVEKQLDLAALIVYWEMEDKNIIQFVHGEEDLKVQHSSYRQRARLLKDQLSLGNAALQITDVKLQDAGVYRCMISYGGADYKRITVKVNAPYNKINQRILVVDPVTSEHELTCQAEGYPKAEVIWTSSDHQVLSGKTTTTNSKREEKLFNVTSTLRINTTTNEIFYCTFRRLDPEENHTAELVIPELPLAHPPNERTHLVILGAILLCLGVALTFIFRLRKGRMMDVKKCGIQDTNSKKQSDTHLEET

人PD-L1重组蛋白 [2] = target: T2, 人PD-L1重组蛋白 (human, UniProt Q9NZQ7 19-238); test: Biacore SPR, AHC capture of antibody, PD-L1 as analyte 0.78125-12.5 nM
T2 construct: also called 重组人PD-L1; 液相中游离PD-L1
T2 sequence (Q9NZQ7 19-238 limits assumed): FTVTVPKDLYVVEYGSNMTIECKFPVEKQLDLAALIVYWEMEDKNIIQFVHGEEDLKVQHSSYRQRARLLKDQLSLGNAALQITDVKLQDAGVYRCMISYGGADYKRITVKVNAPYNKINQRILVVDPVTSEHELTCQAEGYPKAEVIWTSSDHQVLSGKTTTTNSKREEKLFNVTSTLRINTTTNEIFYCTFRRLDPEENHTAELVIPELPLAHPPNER

ICOS重组蛋白 = target: T3, ICOS重组蛋白 (UniProt Q9Y6W8 21-140, limits assumed); test: ELISA on recombinant proteins
T3 sequence (looked up): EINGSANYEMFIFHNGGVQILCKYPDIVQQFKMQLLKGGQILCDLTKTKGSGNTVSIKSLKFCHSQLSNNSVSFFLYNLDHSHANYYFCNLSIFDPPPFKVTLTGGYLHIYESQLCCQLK

CTLA4重组蛋白 = target: T4, CTLA4重组蛋白 (UniProt P16410 36-161, limits assumed); test: ELISA on recombinant proteins
T4 sequence (looked up): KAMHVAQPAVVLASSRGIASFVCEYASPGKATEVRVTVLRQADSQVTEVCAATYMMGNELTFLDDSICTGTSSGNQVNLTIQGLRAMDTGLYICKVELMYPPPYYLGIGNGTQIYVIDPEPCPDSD

PD-1重组蛋白 = target: T5, PD-1重组蛋白 (UniProt Q15116 25-167, limits assumed); test: ELISA on recombinant proteins
T5 construct: also called 受体PD-1
T5 sequence (Q15116 25-167 limits assumed): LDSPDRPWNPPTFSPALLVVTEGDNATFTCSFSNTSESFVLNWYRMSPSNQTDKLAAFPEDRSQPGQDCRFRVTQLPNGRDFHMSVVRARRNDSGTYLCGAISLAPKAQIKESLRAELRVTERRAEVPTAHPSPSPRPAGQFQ

B7H4重组蛋白 = target: T6, B7H4重组蛋白 (UniProt Q7Z7D3 29-258, limits assumed); test: ELISA on recombinant proteins
T6 sequence (looked up): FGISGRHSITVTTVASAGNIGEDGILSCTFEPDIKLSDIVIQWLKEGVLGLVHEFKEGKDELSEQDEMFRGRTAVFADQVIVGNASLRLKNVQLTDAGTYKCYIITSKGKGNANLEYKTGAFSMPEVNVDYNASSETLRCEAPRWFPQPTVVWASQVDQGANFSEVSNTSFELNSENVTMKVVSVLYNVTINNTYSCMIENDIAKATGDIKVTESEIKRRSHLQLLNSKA

B7H3重组蛋白 = target: T7, B7H3重组蛋白 (UniProt Q5ZPR3 29-461, limits assumed); test: ELISA on recombinant proteins
T7 sequence (looked up): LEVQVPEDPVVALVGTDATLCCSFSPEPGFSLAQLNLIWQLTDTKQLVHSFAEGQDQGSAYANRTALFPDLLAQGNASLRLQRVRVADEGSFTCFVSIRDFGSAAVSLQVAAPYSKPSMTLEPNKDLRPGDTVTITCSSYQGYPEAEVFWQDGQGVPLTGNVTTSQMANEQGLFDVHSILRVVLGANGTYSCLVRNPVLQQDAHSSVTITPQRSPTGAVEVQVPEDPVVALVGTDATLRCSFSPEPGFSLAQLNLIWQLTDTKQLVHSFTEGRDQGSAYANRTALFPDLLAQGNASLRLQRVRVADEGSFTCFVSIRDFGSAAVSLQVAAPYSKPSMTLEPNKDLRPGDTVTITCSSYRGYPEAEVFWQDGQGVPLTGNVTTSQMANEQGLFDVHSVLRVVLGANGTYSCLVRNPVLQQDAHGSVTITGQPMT

CD28重组蛋白 = CD28重组蛋白 (UniProt P10747 19-152, limits assumed); test: ELISA on recombinant proteins
CD28重组蛋白, sequence (P10747 19-152 limits assumed): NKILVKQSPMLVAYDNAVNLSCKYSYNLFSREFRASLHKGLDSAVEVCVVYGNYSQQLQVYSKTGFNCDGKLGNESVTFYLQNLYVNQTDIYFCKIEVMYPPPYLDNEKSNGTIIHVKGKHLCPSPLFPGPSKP

人PD-L1重组蛋白 [3] = target: T2, 人PD-L1重组蛋白; test: ELISA, inhibition of recombinant human PD-L1 binding to PD-1
His标签人PD-L1抗原 (human) = His标签人PD-L1抗原 (human) (UniProt Q9NZQ7); test: ELISA, His-tagged human PD-L1 coated at 2.0 μg/mL; ratio = EC50 of chimeric antibody C1 (chC1) / EC50 of humanised antibody x 100%
生物素化的PD-L1抗原 = 生物素化的PD-L1抗原 (UniProt Q9NZQ7); test: competition ELISA, biotinylated PD-L1 on streptavidin, competitor PD-1 mFc 2.0 μg/mL; ratio = IC50 of chimeric antibody / IC50 of humanised antibody x 100%

B2: 人源化抗PD-L1单域抗体C1-hu1 (Fc fusion, not shown: a dimerising Fc or GST)
heavy: EVQLLESGGGLVQPGGSLRLSCAASGAAPCMAWFRQAPGKGLEGVSASVRGGLSPYYADVKGRFTISHDIPKNTMYLQMNSLRAEDTAVYYCAARATFYRCEGDASSYTYWGQGTLVTVSS
- 相对结合活性，% (His标签人PD-L1抗原 (human)): 45.5%
- 相对竞争抑制活性，% (生物素化的PD-L1抗原): 53.4%

B3: 人源化抗PD-L1单域抗体C1-hu5 (Fc fusion, not shown: a dimerising Fc or GST)
heavy: EVQLVESGGGLVQPGGSLRLSCAASGAAPCMAWFRQAPGKGLEGVSASVRGGLSPYYADVKGRFTISHDIPKNTMYLQMNSLRAEDTAVYYCAARATFYRCEGDASSYTYWGQGTLVTVSS
- 相对结合活性，% (His标签人PD-L1抗原 (human)): 62.5%
- 相对竞争抑制活性，% (生物素化的PD-L1抗原): 61.7%

B4: 人源化抗PD-L1单域抗体C1-hu11 (Fc fusion, not shown: a dimerising Fc or GST)
heavy: EVQLVESGGGLVQPGGSLRLSCAASGAAPCMAWFRQAPGKGREGVAASVRGGLSPYYADVKGRFTISHDIPKNTMYLQMNSLRAEDTAVYYCAARATFYRCEGDASSYTYWGQGTLVTVSS
- 相对结合活性，% (His标签人PD-L1抗原 (human)): 81.3%
- 相对竞争抑制活性，% (生物素化的PD-L1抗原): 89.1%

B5: 人源化抗PD-L1单域抗体C1-hu2 (Fc fusion, not shown: a dimerising Fc or GST)
heavy: EVQLLESGGGLVQPGGSLRLSCAASGAAPCMAWFRQAPGKGLEGVSASVRGGLSPYYADVKGRFTISHDIPKNTLYLQMNSLRAEDTAVYYCAARATFYRCEGDASSYTYWGQGTLVTVSS
- 相对结合活性，% (His标签人PD-L1抗原 (human)): 56.5%
- 相对竞争抑制活性，% (生物素化的PD-L1抗原): 73.3%

B6: 人源化抗PD-L1单域抗体C1-hu16 (Fc fusion, not shown: a dimerising Fc or GST)
heavy: EVQLVESGGGLVQPGGSLRLSCAASGAAPCMAWFRQAPGKEREGVAASVRGGLSPYYADVKGRFTISHDIPKNTMYLQMNSLRAEDTAVYYCAARATFYRCEGDASSYTYWGQGTLVTVSS
- 相对结合活性，% (His标签人PD-L1抗原 (human)): 76.6%
- 相对竞争抑制活性，% (生物素化的PD-L1抗原): 107%

B7: 人源化抗PD-L1单域抗体C1-hu15 (Fc fusion, not shown: a dimerising Fc or GST)
heavy: EVQLVESGGGLVQPGGSLRLSCAASGAAPCMAWFRQAPGKEREGVAASVRGGLSPYYADVKGRFTISHDNSKNTMYLQMNSLRAEDTAVYYCAARATFYRCEGDASSYTYWGQGTLVTVSS
- 相对竞争抑制活性，% (生物素化的PD-L1抗原): 68.1%

The remaining lines, values ahead:

- Ka (人PD-L1重组蛋白 (human)): 2.47e+09 M⁻¹
- Kd (人PD-L1重组蛋白 (human)): 405 pM
- EC50 [1]: 8.8 ng/mL
Molecule: 对照抗体KN035 (Envafolimab) (Fc fusion)

- EC50 (MAB-BA-231细胞表面人PD-L1): 8.1 ng/mL
- Ka (人PD-L1重组蛋白 [2]): 3.16e+09 M⁻¹
- Kd (人PD-L1重组蛋白 [2]): 317 pM
- koff (人PD-L1重组蛋白 [2]): 0.000462 s⁻¹
- kon (人PD-L1重组蛋白 [2]): 1.46e+06 M⁻¹ s⁻¹
- binding result (ICOS重组蛋白): no binding
- binding result (CTLA4重组蛋白): no binding
- binding result (PD-1重组蛋白): no binding
- binding result (B7H4重组蛋白): no binding
- binding result (B7H3重组蛋白): no binding
- binding result (CD28重组蛋白): no binding
- IC50 (人PD-L1重组蛋白 [3]): 590 ng/mL
B1: 单域嵌合抗体(VHH-hFc)chC1 (Fc fusion)
heavy: QVQLQESGGGSVQTGGSLRLSCAASGAAPCMAWFRQAPGKEREGVAASVRGGLSPYYADSVKGRFTISHDIPKNTMYLQMNSLQPDDTALYYCAARATFYRCEGDASSYTYWGQGTQVTVSS
notes: VHH of C1 cloned upstream of the human IgG1 Fc gene and expressed in 293F cells; also called 嵌合抗体chC1; 嵌合抗体C1; not shown: Fc segment of the human IgG1 heavy chain constant region
